Patent US20170320956A1 (KYMAB, published 2017)
Residue numbers refer to the chain shown, from its start.

How the values were obtained:
[1] = target: T1, recombinant human LIGHT-214E, FLAG-tagged extracellular domain (human); assay: cell-based or functional assay
T1 chain: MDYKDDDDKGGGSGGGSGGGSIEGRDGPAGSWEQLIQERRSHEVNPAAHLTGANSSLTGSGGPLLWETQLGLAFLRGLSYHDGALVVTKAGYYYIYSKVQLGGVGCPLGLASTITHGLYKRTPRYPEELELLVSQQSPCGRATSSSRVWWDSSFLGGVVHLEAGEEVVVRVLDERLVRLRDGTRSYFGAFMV

[2] = target: T2, mouse LIGHT (mouse, UniProt Q9QYH9 72-239, limits assumed); assay: SPR ProteOn, mAb captured on anti-mouse IgG
T2 construct: also called murine LIGHT
T2 sequence (looked up): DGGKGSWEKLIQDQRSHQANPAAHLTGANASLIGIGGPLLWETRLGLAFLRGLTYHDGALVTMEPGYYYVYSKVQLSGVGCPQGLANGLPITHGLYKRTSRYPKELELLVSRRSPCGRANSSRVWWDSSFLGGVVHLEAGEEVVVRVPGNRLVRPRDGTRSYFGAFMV

[3] = target: human LIGHT-214E, full length, expressed on the surface of CHO-S cells (human, UniProt O43557 1-240); assay: flow cytometry, CHO-S cells expressing hLIGHT-214E
[4] = target: T1, recombinant human LIGHT-214E, …; assay: HTRF competition, HVEM-Fc binding to Flag-hLIGHT-214E
Protocol: (§1) The following methods were carried out with a titration of inhibitor in order to establish the clone potency as measured by IC50 values in the assay. 5 μl of Flag-tagged hLIGHT (in-house) diluted to 2.5 nM final concentration (10 nM working concentration) in HTRF buffer with 5 μl of a titration of antibody purified from hybridoma supernatant diluted in HTRF assay buffer from 300 nM final (1200 nM working concentration) was pre-incubated for 1 hour at room temperature. To wells used to define total binding, 5 μl of LIGHT (10 nM working, 2.5 nM final) and 5 μl of hybridoma maintaining media (HMM,)) were added. To wells used to define non specific binding (receptor only) 10 μl of HMM was added. Total and non specific binding wells were pre-incubated for 1 hr at RT in the same plate as wells containing titration of inhibitor.
(§2) LIGHT receptor was diluted in HTRF assay buffer and added to all wells, 5 μl/well of HVEM-Fc or LTβR-Fc (R&D systems) at 1.2 nM for HVEM (0.3 nM final) and 0.4 nM for LTβR (0.1 nM final).

[5] = target: T1, recombinant human LIGHT-214E, …; assay: HTRF competition, LTβR-Fc binding to Flag-hLIGHT-214E
Protocol: as §1, §2

[6] = target: T3, recombinant human LIGHT-214K, FLAG-tagged extracellular domain (human); assay: SPR ProteOn, mAb captured on anti-mouse IgG, LIGHT 256 nM, 25 C
T3 construct: the IgK leader peptide is marked only by underlining (not visible here), so its residues were not removed; Trimer
T3 chain: T1 chain with E166K
Protocol: (§3) SPR analysis was carried out using the ProteOn™ XPR36 Array System (BioRad). Anti-mouse IgG (GE Healthcare BR-1008-38) was immobilised on a GLC biosensor surface using amine coupling, the surface was then blocked using 1M ethanolamine. […] Apparent affinities for the LIGHT-antibody interaction were determined using the 1:1 model inherent to the ProteOn XPR36 analysis software. The assay was run using HBS-EP (Teknova) as running buffer and carried out at 25° C.

[7] = target: T1, recombinant human LIGHT-214E, …; assay: SPR ProteOn, mAb captured on anti-mouse IgG, LIGHT 256 nM, 25 C, apparent affinity
Protocol: as §3

[8] = target: T4, recombinant cynomolgus monkey LIGHT, FLAG-tagged extracellular domain (cynomolgus (Macaca fascicularis), UniProt E9NVF7 59-240); assay: as above
T4 construct: extracellular domain; also called cynomolgus LIGHT; cyno LIGHT
Protocol: as §3

B1: 117C06 (purified from hybridoma supernatant) (antibody, V domains shown)
VH: QVQLVQSGAEVKKPGASVKVSCKASGYTFVNFGISWVRQAPGQGLEWMGWISVYSGNTNYAQKLQGRVTLTTDTSTTTAYMELRSLRSDDTAVYYCARHNWNDYWGQGTLVTVSS
VL: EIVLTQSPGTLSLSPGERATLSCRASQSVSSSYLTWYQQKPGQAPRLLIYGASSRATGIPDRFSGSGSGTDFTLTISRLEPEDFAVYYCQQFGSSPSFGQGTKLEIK
notes: Murine constant / human variable chimeric IgG, kappa, Protein G purified from hybridoma supernatant
[1]
  HT29 IL-8 release, IC50: 1.42 nM
[2]
  binding result: no binding
[3]
  binding result: binds
[4]
  IC50: 1.28 nM
[5]
  IC50: 2.53 nM
[6]
  binding result: no binding (tested: 256 nM)
[7]
  Kd: 1.03 nM
[8]
  Kd: 2.82 nM
